Source: PMC6382783
Each block holds one substance with its values, some of them ahead of it.

Legend:
[1] = target: ThiS-YbeA-ssrA (Archaeoglobus fulgidus | Escherichia coli | not stated); assay: SEC; analytical SEC on an S200 10/300 GL column, 0.5-1 mL/min, molecular mass from Kav against a calibration curve of low molecular weight standards
[2] = target: ClpXP (ClpXΔN6 with ClpP14) (Escherichia coli | E. coli) (UniProt P0A6H1)
[3] = target: YbeA-ssrA (Escherichia coli | not stated); assay: SEC; analytical SEC on an S200 10/300 GL column, 0.5-1 mL/min, molecular mass from Kav against a calibration curve of low molecular weight standards

stoichiometry N [1]: 2
Substance: ThiS-YbeA-ssrA

degradation of PR65/A-ssrA by ClpXP in competition with equimolar UCH-L1-ssrA (5 µM each), SDS-PAGE and densitometry [2]: 2 fold
Substance: UCH-L1-ssrA (enzyme)

stoichiometry N [3]: 2
Substance: YbeA-ssrA (enzyme)
